Series [1] deals with T1, MSI1 RRM1-RRM2 tandem (Homo sapiens, UniProt O43347 1-200). As to the kind of experiment: SPR; KD1 monovalent step, new rapid 2:1 model; SPR, 3'-biotinylated RNA immobilized on dextran sensor chip, protein as analyte; running buffer, salt, pH and temperature not in the material. As to conditions: protein: recombinant; label: 3'-biotin; linear, single UAG motif.
Series [2] deals with T1, MSI1 RRM1-RRM2 tandem. Description: SPR; KD1, induced fit model; SPR, 3'-biotinylated RNA immobilized on dextran sensor chip, protein as analyte; running buffer, salt, pH and temperature not in the material. As to conditions: protein: recombinant; label: 3'-biotin; linear, single UAG motif.
In series [3] the target is T2, MSI1 RRM1 (Homo sapiens, UniProt O43347 1-103). As to the kind of experiment: SPR; 1:1 with mass transport; SPR, 3'-biotinylated RNA immobilized on dextran sensor chip, protein as analyte; running buffer, salt, pH and temperature not in the material. As to conditions: protein: recombinant, tags: N-terminal Strep-tag, label: 3'-biotin.
In series [4] the target is T3, MSI1 RRM2 (Homo sapiens, UniProt O43347 104-200). Described as above. As to conditions: protein: recombinant, tags: C-terminal Strep-tag, label: 3'-biotin.
The target of series [5] is T1, MSI1 RRM1-RRM2 tandem. As to the kind of experiment: SPR; KD1, bivalent analyte model (Table 3 prints 41); SPR, 3'-biotinylated RNA immobilized on dextran sensor chip, protein as analyte; running buffer, salt, pH and temperature not in the material. As to conditions: protein: recombinant; label: 3'-biotin; linear, single UAG motif.
Series [6] addresses T1, MSI1 RRM1-RRM2 tandem. Description: SPR; 1:1 model (poor fit); SPR, 3'-biotinylated RNA immobilized on dextran sensor chip, protein as analyte; running buffer, salt, pH and temperature not in the material. As to conditions: protein: recombinant; label: 3'-biotin; linear, single UAG motif.
In series [7] the target is T1, MSI1 RRM1-RRM2 tandem. Description: SPR; KD1 monovalent step, new model; SPR, 3'-biotinylated RNA immobilized on dextran sensor chip, protein as analyte; running buffer, salt, pH and temperature not in the material. As to conditions: protein: recombinant, label: 3'-biotin.
The target of series [8] is T1, MSI1 RRM1-RRM2 tandem. Description: SPR; KD1, bivalent analyte model; SPR, 3'-biotinylated RNA immobilized on dextran sensor chip, protein as analyte; running buffer, salt, pH and temperature not in the material. As to conditions: protein: recombinant, label: 3'-biotin.
The target in series [9] is T1, MSI1 RRM1-RRM2 tandem. As to the kind of experiment: SPR; 7.8-250 nM; SPR, 3'-biotinylated RNA immobilized on dextran sensor chip, protein as analyte; running buffer, salt, pH and temperature not in the material. As to conditions: protein: recombinant; label: 3'-biotin.
The target of series [10] is T2, MSI1 RRM1. Description: SPR; 1.9-500 nM; SPR, 3'-biotinylated RNA immobilized on dextran sensor chip, protein as analyte; running buffer, salt, pH and temperature not in the material. As to conditions: protein: recombinant; tags: N-terminal Strep-tag; label: 3'-biotin.
In series [11] the target is T3, MSI1 RRM2. The series is described as above. As to conditions: protein: recombinant; tags: C-terminal Strep-tag; label: 3'-biotin.

T2 sequence (O43347 1-103): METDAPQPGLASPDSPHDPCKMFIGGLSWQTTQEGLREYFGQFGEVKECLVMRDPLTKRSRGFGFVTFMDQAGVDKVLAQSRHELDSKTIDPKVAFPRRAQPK
T1 sequence (O43347 1-200): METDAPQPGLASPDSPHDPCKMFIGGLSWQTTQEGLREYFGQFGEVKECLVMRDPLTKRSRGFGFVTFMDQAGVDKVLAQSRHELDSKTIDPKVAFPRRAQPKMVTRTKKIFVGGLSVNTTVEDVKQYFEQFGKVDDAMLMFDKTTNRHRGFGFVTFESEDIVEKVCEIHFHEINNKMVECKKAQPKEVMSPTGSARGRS
T3 sequence (O43347 104-200): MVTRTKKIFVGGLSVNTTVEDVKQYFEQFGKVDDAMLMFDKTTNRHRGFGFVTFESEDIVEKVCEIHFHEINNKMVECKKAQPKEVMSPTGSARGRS

On to UUGUUAGUUACCCCUU (ssRNA) [RNA-L1], for which the Kd is 58 nM in series [1]; 24 nM in series [2]; 47 nM in series [3] (linear, single UAG motif); 25 nM in series [4] (linear, single UAG motif); 42 nM in series [5]; 2 nM in series [6].
For the molecule UUGUCAGUUACCCCUU (ssRNA) [RNA-L1a], the Kd in [3] (linear) was 151 nM; in series [4] (linear) it was 123 nM; in [7] (linear), 1170 nM; in series [8] (linear), 1410 nM.
Take CACUCUGUAGUAUGUAGGGUUUAUUU (structured_RNA) [RNA-HP2b]: the Kd in series [3] (potential hairpin) was 33 nM; in series [4] (potential hairpin), 26 nM; in [7] (potential hairpin), 49 nM; in [8] (potential hairpin), 144 nM.
With AAGCGUUAGUUAUUUAGUCGCUU (structured_RNA) [RNA-HP2a], the Kd in series [3] (potential hairpin) amounted to 22 nM; in series [4] (potential hairpin), 37 nM; in series [7] (potential hairpin), 77 nM; in series [8] (potential hairpin), 45 nM.
In the case of CGGCGCCGC (ssRNA) [RNA C], the binding result in [9], in [10] and in [11] was “no binding” throughout.

(Values after PMC11542179, “Unraveling the Bivalent and Rapid Interactions Between a Multivalent RNA Recognition Motif and RNA: A Kinetic Approach”.)
